The target of this assay is T1, GST-XBAT31 (Arabidopsis, UniProt Q94B55 1-456).
T1 sequence (looked up): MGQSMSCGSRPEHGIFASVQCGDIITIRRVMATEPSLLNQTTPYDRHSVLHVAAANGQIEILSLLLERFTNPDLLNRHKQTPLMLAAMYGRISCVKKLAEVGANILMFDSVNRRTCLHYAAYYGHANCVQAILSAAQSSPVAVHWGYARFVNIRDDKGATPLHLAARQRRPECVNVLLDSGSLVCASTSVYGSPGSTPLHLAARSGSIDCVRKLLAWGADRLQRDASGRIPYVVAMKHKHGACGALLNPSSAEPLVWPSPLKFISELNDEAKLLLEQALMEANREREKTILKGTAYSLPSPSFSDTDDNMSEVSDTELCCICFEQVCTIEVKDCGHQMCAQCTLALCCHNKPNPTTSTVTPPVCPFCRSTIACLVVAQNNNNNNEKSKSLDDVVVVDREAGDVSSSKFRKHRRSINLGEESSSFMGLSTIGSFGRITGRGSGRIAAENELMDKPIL
The experiment in a line: pull-down.

One molecule from article PMC8104893 (Science Advances, 2021) can be followed below.

B1: MBP-BBX18 (natural protein, Arabidopsis, UniProt Q9SJU5 1-172, looked up)
chain: MRILCDACESAAAIVFCAADEAALCCSCDEKVHKCNKLASRHLRVGLADPSNAPSCDICENAPAFFYCEIDGSSLCLQCDMVVHVGGKRTHRRFLLLRQRIEFPGDKPNHADQLGLRCQKASSGRGQESNGNGDHDHNMIDLNSNPQRVHEPGSHNQEEGIDVNNANNHEHE
For B1, the binding result is “binds”.
